# Laboratory results: publication PMC10127692, “SARS-CoV-2 SUD2 and Nsp5 Conspire to Boost Apoptosis of Respiratory Epithelial Cells via an Augmented Interaction with the G-Quadruplex of BclII”
# Tests used:
# [1] = target: T1, SUD2core (SUD2-N+M of Nsp3) (SARS-CoV-2, UniProt P0DTC1 1230-1493); test: pull-down; 100 mM K+; positive control; details: protein: recombinant; tags: His; label: 5'-biotin; G4
# [2] = target: SUD2core (SUD2-N+M of Nsp3);Nsp5 (SARS-CoV-2;SARS-CoV-2, UniProt P0DTC1;P0DTC1 1230-1493;3264-3569, |); test: pull-down; 100 mM K+; Nsp5 added; details: protein: recombinant;recombinant; tags: His;GST; label: 5'-biotin (BLI, pulldown); Cy5 (EMSA); G4, folded in 100 mM K+
# [3] = target: T1, SUD2core (SUD2-N+M of Nsp3); test: BLI; 100 mM K+; details: protein: recombinant; tags: His; label: 5'-biotin (BLI, pulldown); Cy5 (EMSA); G4, folded in 100 mM K+
Binder,binding result [1],binding signal [2],Kd [3] [nM]
TTGAGGGTGGGTAGGGTGGGTAA (structured_DNA) [MYCG4],binds,–,–
GGGCGCGGGAGGAATTGGGCGGG (structured_DNA) [Bcl2G4WT (G4 folded)],–,6.3 fold SUD2core retained vs without Nsp5,85
